In patent publication US20260098095A1 (Hoffmann-La Roche, published 2026):
Residue numbers refer to the chain shown, from its start.

Legend:
Test in all cases: cell-based or functional assay
[1] = biological target: T1, HLA-A2/MAGE-A4 peptide MHC (pMHC) complex on cells (human)
[2] = biological target: T1, HLA-A2/MAGE-A4 peptide MHC (pMHC) …; remark: listed apart in the source
[3] = biological target: HLA-A2 with peptide MAGB6 on T2 cells (human)
PIGG = PIGG (human)
UBE2V2 = UBE2V2 (human)
ARF3 = ARF3 (human)
ARF1 = ARF1 (human)
VPS13D = VPS13D (human)
MTOR = MTOR (human)
KDM1A = KDM1A (human)
gutQ = gutQ (human)
DYNC1H1 = DYNC1H1 (human)
GAPDHS = GAPDHS (human)
DPYSL3 = DPYSL3 (human)
CRMP1 = CRMP1 (human)
PKP1 = PKP1 (human)
URB1 = URB1 (human)
BNRF1 = BNRF1 (human)
DPYSL4 = DPYSL4 (human)
FBXO34 = FBXO34 (human)
KEAP1 = KEAP1 (human)
SLC45A1 = SLC45A1 (human)
EDC3 = EDC3 (human)
CCS = CCS (human)
pfkA = pfkA (human)
MAGEB2 = MAGEB2 (human)
UNC80 = UNC80 (human)
V10A = V10A (human)
V2A = V2A (human)
G1A = G1A (human)
D4A = D4A (human)
G5A = G5A (human)
T9A = T9A (human)
E7A = E7A (human)
Y3A = Y3A (human)
[4] = biological target: T1, HLA-A2/MAGE-A4 peptide MHC (pMHC) …; remark: listed apart in the source
R6A = R6A (human)
H8A = H8A (human)
[5] = biological target: T1, HLA-A2/MAGE-A4 peptide MHC (pMHC) …; remark: listed apart in the source

B1: Molecule A (bispecific antibody, V domains shown)
VH 1: YVQLVESGGGLVKPGGSLRLSCAAPLPFTGLDMSWVRQAPGKGLEWVGSISPKGGSTYYNDNVLGRFTISRDNSKNTLYLQMNSLRAEDTAVYYCARDWGFFDLWGQGTLVTVSS
VL 1: AIQMTQSPSSLSASVGDRVTITCRASQSISNYLAWYQQKPGKAPKLLIYDANAHENDVPSRFSGSGSGTDFTLTISSLQPEDFATYYCQQYSSHPYTFGQGTKLEIK
VH 2: not shown
VL 2: QAVVTQEPSLTVSPGGTVTLTCGSSTGAVTTSNYANWVQEKPGQAFRGLIGGTNKRAPGTPARFSGSLLGGKAALTLSGAQPEDEAEYYCALWYSNLWVFGGGTKLTVL
EC50 [pM], T-cell mediated lysis of A-375 cells, 24 h [1]: 1210 pM
EC50 [pM], T-cell mediated lysis of C-33A cells, 24 h [1]: 225 pM
EC50 [pM], T-cell mediated lysis of IM-9 cells, 24 h [1]: 43.4 pM
EC50 [pM], T-cell mediated lysis of NCI-H1755 cells, 24 h [1]: 9.4 pM
EC50 [pM], T-cell mediated lysis of NCI-H2023 cells, 24 h [1]: 2090 pM
EC50 [pM], T-cell mediated lysis of UMUC-3 cells, 24 h [1]: 775 pM
EC50 [pM] 24 h, T-cell mediated lysis of MAGE-A4 peptide pulsed T2 cells [2]: 1.2 pM
% of MAGE-A4 signal, Jurkat-NFAT; grey (>2%) [3]: 22.4%
% of MAGE-A4 signal, Jurkat-NFAT (PIGG): 0.7%
% of MAGE-A4 signal, Jurkat-NFAT (UBE2V2): 0.75%
% of MAGE-A4 signal, Jurkat-NFAT (ARF3): 0.92%
% of MAGE-A4 signal, Jurkat-NFAT (ARF1): 0.67%
% of MAGE-A4 signal, Jurkat-NFAT (VPS13D): 0.67%
% of MAGE-A4 signal, Jurkat-NFAT (MTOR): 0.41%
% of MAGE-A4 signal, Jurkat-NFAT (KDM1A): 0.5%
% of MAGE-A4 signal, Jurkat-NFAT (gutQ): 0.64%
% of MAGE-A4 signal, Jurkat-NFAT (DYNC1H1): 0.4%
% of MAGE-A4 signal, Jurkat-NFAT (GAPDHS): 0.91%
% of MAGE-A4 signal, Jurkat-NFAT; grey (>2%) (DPYSL3): 32.9%
% of MAGE-A4 signal, Jurkat-NFAT (CRMP1): 1.74%
% of MAGE-A4 signal, Jurkat-NFAT (PKP1): 0.5%
% of MAGE-A4 signal, Jurkat-NFAT; grey (>2%) (URB1): 80.5%
% of MAGE-A4 signal, Jurkat-NFAT (BNRF1): 0.47%
% of MAGE-A4 signal, Jurkat-NFAT (DPYSL4): 1.68%
% of MAGE-A4 signal, Jurkat-NFAT (FBXO34): 0.46%
% of MAGE-A4 signal, Jurkat-NFAT (KEAP1): 0.39%
% of MAGE-A4 signal, Jurkat-NFAT (SLC45A1): 0.39%
% of MAGE-A4 signal, Jurkat-NFAT (EDC3): 0.9%
% of MAGE-A4 signal, Jurkat-NFAT; grey (>2%) (CCS): 3.06%
% of MAGE-A4 signal, Jurkat-NFAT (pfkA): 0.58%
% of MAGE-A4 signal, Jurkat-NFAT (MAGEB2): 0.83%
% of MAGE-A4 signal, Jurkat-NFAT (UNC80): 0.48%
EC50, Jurkat-NFAT activation (V10A): 29 pM
EC50, Jurkat-NFAT activation (V2A): 18.4 pM
EC50, Jurkat-NFAT activation (G1A): 40000 pM
EC50, Jurkat-NFAT activation (D4A): 51600 pM
EC50, Jurkat-NFAT activation (G5A): 5.6 pM
EC50, Jurkat-NFAT activation (T9A): 38.3 pM
EC50, Jurkat-NFAT activation (E7A): 100 pM
EC50, Jurkat-NFAT activation (Y3A): 5270 pM
EC50, Jurkat-NFAT activation [4]: 10.5 pM
EC50, Jurkat-NFAT activation (R6A): 40100 pM
EC50, Jurkat-NFAT activation (H8A): 44 pM
EC50 [pM], activation of Jurkat-NFAT reporter cells (luminescence, 6 h) with MAGE-A4 peptide pulsed T2 cells [5]: 30.3 pM

B2: Molecule C (bispecific antibody, V domains shown)
VH 1: TQQLVESGGGLVQPGGSLRLSCAASGFSFSFDTMSWVRQAPGKGLEWVGSISPSGGSTYYNDNVLGRFTISRDNSKNTLYLQMNSLRAEDTAVYYCARDHGYFDMWGQGTLVTVSS
VL 1: B1 VL 1 with A1D, N31S, N52S, A53W, H54L, N56L, D57G, H94Y
VH 2: not shown
VL 2: B1 VL 2
EC50 [pM], T-cell mediated lysis of IM-9 cells, 24 h [1]: 2740 pM
EC50 [pM], T-cell mediated lysis of NCI-H1755 cells, 24 h [1]: 460 pM
EC50 [pM] 24 h, T-cell mediated lysis of MAGE-A4 peptide pulsed T2 cells [2]: 121 pM
% of MAGE-A4 signal, Jurkat-NFAT (PIGG): 0.33%
% of MAGE-A4 signal, Jurkat-NFAT (UBE2V2): 0.52%
% of MAGE-A4 signal, Jurkat-NFAT (ARF3): 0.49%
% of MAGE-A4 signal, Jurkat-NFAT (ARF1): 0.23%
% of MAGE-A4 signal, Jurkat-NFAT (VPS13D): 0.39%
% of MAGE-A4 signal, Jurkat-NFAT (MTOR): 0.26%
% of MAGE-A4 signal, Jurkat-NFAT (KDM1A): 0.24%
% of MAGE-A4 signal, Jurkat-NFAT (gutQ): 0.36%
% of MAGE-A4 signal, Jurkat-NFAT (DYNC1H1): 0.17%
% of MAGE-A4 signal, Jurkat-NFAT (GAPDHS): 0.37%
% of MAGE-A4 signal, Jurkat-NFAT (DPYSL3): 0.35%
% of MAGE-A4 signal, Jurkat-NFAT (CRMP1): 0.29%
% of MAGE-A4 signal, Jurkat-NFAT (PKP1): 0.49%
% of MAGE-A4 signal, Jurkat-NFAT (URB1): 0.45%
% of MAGE-A4 signal, Jurkat-NFAT (BNRF1): 0.36%
% of MAGE-A4 signal, Jurkat-NFAT (DPYSL4): 0.27%
% of MAGE-A4 signal, Jurkat-NFAT (FBXO34): 0.39%
% of MAGE-A4 signal, Jurkat-NFAT (KEAP1): 0.51%
% of MAGE-A4 signal, Jurkat-NFAT (SLC45A1): 0.22%
% of MAGE-A4 signal, Jurkat-NFAT (EDC3): 0.48%
% of MAGE-A4 signal, Jurkat-NFAT (CCS): 0.29%
% of MAGE-A4 signal, Jurkat-NFAT (pfkA): 0.4%
% of MAGE-A4 signal, Jurkat-NFAT (MAGEB2): 0.34%
% of MAGE-A4 signal, Jurkat-NFAT (UNC80): 0.43%
EC50, Jurkat-NFAT activation (V10A): 13000 pM
EC50, Jurkat-NFAT activation (V2A): 687 pM
EC50, Jurkat-NFAT activation (G1A): 1440 pM
EC50, Jurkat-NFAT activation (D4A): 738 pM
EC50, Jurkat-NFAT activation (G5A): 16800 pM
EC50, Jurkat-NFAT activation (T9A): 670 pM
EC50, Jurkat-NFAT activation (E7A): 1220 pM
EC50, Jurkat-NFAT activation (Y3A): 626 pM
EC50, Jurkat-NFAT activation [4]: 1030 pM
EC50, Jurkat-NFAT activation (R6A): 4340 pM
EC50, Jurkat-NFAT activation (H8A): 3940 pM
EC50 [pM], activation of Jurkat-NFAT reporter cells (luminescence, 6 h) with MAGE-A4 peptide pulsed T2 cells [5]: 976 pM
